According to patent US20230035798A1 (CAPELLA BIOSCIENCE, published 2023):

T1: recombinant human soluble LIGHT, amino acids 74-240 (R&D Systems 664-LI-025) (human, UniProt O43557 74-240)
T1 construct: range 74-240; also called 74-240 LIGHT; Soluble LIGHT 74-240
T1 chain: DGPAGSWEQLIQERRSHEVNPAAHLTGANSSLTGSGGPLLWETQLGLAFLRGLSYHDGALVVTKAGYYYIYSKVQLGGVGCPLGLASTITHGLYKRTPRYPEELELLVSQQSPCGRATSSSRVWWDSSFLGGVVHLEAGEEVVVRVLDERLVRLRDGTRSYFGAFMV


Experiments:
[1] = molecular target: T2, human LIGHT (TNFSF14), full length, membrane-bound (214E allele) (human, UniProt O43557 1-240); assay: competition with biotin-LTβR:Fc, HEK293FF LIGHT cells, flow cytometry
T2 construct: also called membrane LIGHT; human membrane LIGHT
Experimental: The ability of the 7 chimeric mAbs to block biotin-HVEM:Fc and biotin-LTβR:Fc fusion proteins to cell surface expressed LIGHT using a flow cytometric based assay is shown in FIGS. 1A and 1B respectively. In these experiments, graded amounts of each antibody were added to the HEK293FF cells transiently transfected with LIGHT with a 50% saturating amount of the receptor fusion protein. As shown, each of the antibodies blocked either receptor fusion protein from binding LIGHT, in contrast to the irrelevant antibody control which had no effect on either Fc-receptor fusion protein binding. In each experiment, all antibodies blocked receptor binding in a dose dependent manner enabling analysis by non-linear regression to determine the IC50 dose as shown in Table 11A.
Target sequence in this assay (O43557 whole entry K214E): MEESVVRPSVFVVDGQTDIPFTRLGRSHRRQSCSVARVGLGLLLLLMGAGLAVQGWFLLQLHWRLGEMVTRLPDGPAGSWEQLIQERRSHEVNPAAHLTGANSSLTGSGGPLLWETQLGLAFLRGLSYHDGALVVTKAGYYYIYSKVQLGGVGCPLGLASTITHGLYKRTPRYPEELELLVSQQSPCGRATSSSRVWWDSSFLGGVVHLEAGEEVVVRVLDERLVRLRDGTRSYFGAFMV

[2] = molecular target: T2, human LIGHT (TNFSF14), full length, …; assay: flow cytometry, maximum signal compared with F19 and F23
Target sequence in this assay (O43557 whole entry K214E): as above

[3] = molecular target: T2, human LIGHT (TNFSF14), full length, …; assay: membrane LIGHT on cells, as for Table 9
Target sequence in this assay (O43557 whole entry K214E): as above

[4] = molecular target: T1, recombinant human soluble LIGHT, amino …; assay: SPR (BIAcore), as for Table 9
Experimental: (§1) Real-time binding interactions between captured antibody (chimeric anti-membrane LIGHT monoclonal antibody) captured on a biosensor matrix via goat anti-human Fe IgG and recombinant soluble LIGHT were measured by surface plasmon resonance (SPR) using the BIAcore system (GE Healthcare) according to manufacturer's instructions and standard procedures. Briefly, soluble LIGHT was diluted in HBS running buffer (GE Healthcare) and aliquots were injected through the immobilized protein matrices at a flow rate of […]. BIAevaluation software was used to calculate association rate (ka), dissociation rate (kd) and affinity (KD).
The specificity of further anti-membrane LIGHT mAbs to soluble LIGHT was determined by using the same BIAcore analysis discussed above which was used to generate the data in Table 9. In brief, mAbs 3B04, 3D12, 3A07, 3C10 and 2B11 were compared to various prior art antibodies, (F19 and F23 IgG4 mAbs from EP2292663 and 1C02, 13H04 and 31A10 mAbs from WO2015/107331).

[5] = molecular target: T2, human LIGHT (TNFSF14), full length, …; assay: soluble LIGHT 74-240 KD over membrane LIGHT KD
Target sequence in this assay (O43557 whole entry K214E): as above

[6] = molecular target: membrane LIGHT without residues 81-84 (EL4-NC-LIGHT cells) (human, UniProt O43557 1-240); assay: cell-based or functional assay
[7] = molecular target: T2, human LIGHT (TNFSF14), full length, …; assay: flow cytometry, mAb binding to EL4 cells stably expressing human LIGHT [lower panel]
[8] = molecular target: T1, recombinant human soluble LIGHT, amino …; assay: SPR (BIAcore), mAb captured on anti-human Fc, soluble LIGHT in flow
Experimental: as §1
(§2) The specificity of two lead anti-membrane LIGHT mAbs to soluble LIGHT was determined by BIAcore analysis and compared to the KD calculated from the EC50 values in Table 7 (results in Table 9). In brief, mAbs 3D12, 3B04 were compared to a mAb that binds both soluble and membrane LIGHT, F19, (F19 IgG4 mAb from EP2292663). An irrelevant anti-HEL mAb, 2A11, was used as a negative control. The mAbs were captured on an anti-human Fc mAb coated chip and soluble LIGHT was passed over the surface and the kinetic parameters were calculated using BIAcore 3000 software. The soluble LIGHT preparations used were amino acids 74-240 LIGHT (R&D Systems, 664-LI-025) and 64-240 LIGHT (Abcam, ab82123).

[9] = molecular target: T3, soluble LIGHT, amino acids 64-240 (Abcam ab82123) (UniProt O43557 64-240); assay: as above
T3 construct: range 64-240; bought protein; also called 64-240 LIGHT; Soluble LIGHT 64-240
Experimental: as §1, §2

[10] = molecular target: T2, human LIGHT (TNFSF14), full length, …; assay: KD calculated from EC50 on EL4-LIGHT cells, flow cytometry
[11] = molecular target: T2, human LIGHT (TNFSF14), full length, …; assay: flow cytometry, EL4-LIGHT cells, maximum signal compared with F19 and F23
Text: FIG. 7 depicts the flow cytometry analysis of the anti-membrane LIGHT mAbs (3B04 and 3D12) binding to LIGHT stably expressed on EL4 cells. The maximum signal of the IgG4 mAbs 3B04 and 3D12 binding to membrane LIGHT is approximately 40000 MFI. In contrast anti-LIGHT mAbs F19 and F23 (IgG4 mAbs from EP2292663) gave a maximal signal of approximately 120000 MFI. The ratio of binding of mAb F19 and mAb F23 is approximately 3 times that of the anti-membrane LIGHT mAbs 3B04 and 3D12. […] Other mAbs of this invention; 2E08, 3A07, 3C10, 3E09 and 2B11 also bind LIGHT in a 1:1 ratio when compared to mAbs F19 and F23 by flow cytometry.

[12] = molecular target: T2, human LIGHT (TNFSF14), full length, …; assay: flow cytometry, EL4-LIGHT cells
Target sequence in this assay (O43557 whole entry K214E): as above

Sequence of membrane LIGHT without residues 81-84 (EL4-NC-LIGHT cells) (O43557 other isoform, or with tags, fused parts or gaps): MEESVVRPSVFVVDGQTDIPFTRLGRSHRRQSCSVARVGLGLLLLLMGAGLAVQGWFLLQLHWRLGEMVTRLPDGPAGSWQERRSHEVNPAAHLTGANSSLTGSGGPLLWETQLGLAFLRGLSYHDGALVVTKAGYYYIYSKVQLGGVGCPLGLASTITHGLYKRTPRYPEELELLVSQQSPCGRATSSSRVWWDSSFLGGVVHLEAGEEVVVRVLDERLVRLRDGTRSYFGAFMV

Row | Binder | IC50 [1] | binding ratio, mAb per LIGHT trimer [2] | Kd [3] | Kd [4] | Membrane:soluble LIGHT affinity ratio [5] | IC50, inhibition of IL-8 secretion from HT-29 cells (EL4-NC-LIGHT cells) [6] | EC50 (read off the curve) [7] | Kd [8] | koff [8] | kon [8] | Kd [9] | koff [9] | kon [9] | Kd [10] | binding ratio, mAb per LIGHT trimer [11] | EC50 [12]
1 | 3A07 (antibody, human IgG4, V domains shown, chimeric human IgG4 (S-to-P, L-to-E at 248), human CL; also called Parental 3A07) VH: QVQLQQSGAELVRPGAPVTLSCKASDYTFTDSEIHWVKQTPVHGLEWIGEIDPETGGTAYNQKFKGKATLTADKSSSTAYMELRSLTSEDSAVYYCSRETDYFFDYWGQGTTLTVSS VL: ENVLTQSPAIMSASPGEKVTMTCSASSSVSYMYWYQQRPGSSPRLLIYDTSNLASGVPVRFSGSGSGTSYSLTISRMEAEDAATYYCQQWSSYPLTFGSGTKLEIK | 1.4 nM | 1 mAb per LIGHT trimer | 0.15 nM | 15.8 nM | 105 |  |  |  |  |  |  |  |  |  |  | 
2 | 3B04 (antibody, human IgG4, V domains shown, chimeric: mouse variable domains on human IgG4 HC (S-to-P and L-to-E at 248) and human CL; also called Parental 3B04; 3B04 chimeric) VH: QVQLQQPGAELVRPGASVTLSCKASGYTFTDYEMHWVKQTPVHGLEWIGEIDPETGDTAYSQKFKGKATLTADKSSSTAYMEFRSLTSEDSAVYYCSRETDYFFDYWGQGTTLTVSS VL: DIQMTQTPASLSASVGETVTITCGASENIYGALNWYQRKQGKSPQLLIYGATNLADGMSSRFSGSGSGRQYSLKISSLHPDDFATYYCQNVLTTPWTFGGGTKLEIKR | 1.1 nM |  | 0.21 nM | 11.1 nM | 52.9 | 0.05 nM | ~0.2 nM | 15.7 nM | 0.00348 s⁻¹ | 222000 M⁻¹ s⁻¹ | 13.8 nM | 0.00345 s⁻¹ | 251000 M⁻¹ s⁻¹ | 0.15 nM | 1 mAb per LIGHT trimer | 0.12 nM
3 | 3C10 (antibody, human IgG4, V domains shown, chimeric human IgG4 (S-to-P, L-to-E at 248), human CL; also called Parental 3C10) VH: EVQLQQSGAELVRPGASVTLSCKASDYTFTDSEIHWVKQTPVHGLEWIGEIDPETGGTAYNQKFKGKATLTADKSSSTAYMELRSLTSEDSAVYYCSRETDYFFDYWGQGTTLTVSS VL: DVVMTQTPAIMSASPGEKVTMTCSASSSVSYMYWYQQKPGSSPRLLIYDTSNLASGVPVRFSGSGSGTSYSLTISRMEAEDAATYYCQQWSSYPLTFGAGTKLELK | 1.9 nM | 1 mAb per LIGHT trimer | 0.18 nM | 11 nM | 61.1 |  |  |  |  |  |  |  |  |  |  | 
4 | 3E09 (antibody, V domains shown, chimeric human IgG4 (S-to-P, L-to-E at 248), human CL; also called Parental 3E09) VH: EVQLVESGGGLVKPGGSLKLSCEASGFTFSDYYMYWVRQTPEKRLEWVAAIGDGGIYTYYADTVKGRFTISRDNAKNILYLQMSSLKSNDTAMYYCARGTGDGFAYWGQGTLVTVS VL: DIVLTQSPASLAVSLGQRATISCRASESVDSYGNSFMHWYQQKPGQPPKLLIYLASNLESGVPARFSGSGSRTDFTLTIDPVEADDAATYYCQQNNEDPYTFGGGTKLEIK | 12 nM | 1 mAb per LIGHT trimer |  |  |  |  |  |  |  |  |  |  |  |  |  | 
5 | 2E08 (antibody, human IgG4, V domains shown, chimeric human IgG4 (S-to-P, L-to-E at 248), human CL; also called Parental 2E08) VH: QVQMKESGAELVRPGVSVKISCKGSGYTFTDYAIHWVKQSHAKTLEWIGVISTYYGDASYNQKFKGKATMTVDKSSSTAYMELARLTSDDSAIYYCARSRGEYGNYDAMDYWGQGTSVTVSS VL: DIVLTQSPASLAVSLGQRATISCKASQSVDYDGDSYMNWYQQKPGQPPKLLIYAASNLESGIPARFSGSGSGTDFTLNIHPVEEEDAATYYCQQSNEDPLTFGAGTKLELK | 14.4 nM | 1 mAb per LIGHT trimer |  |  |  |  |  |  |  |  |  |  |  |  |  | 

Continued by falling IC50 [1], values first:

Row | IC50 [1] | binding ratio, mAb per LIGHT trimer [2] | Kd [3] | Kd [4] | Membrane:soluble LIGHT affinity ratio [5] | Binder | IC50, inhibition of IL-8 secretion from HT-29 cells (EL4-NC-LIGHT cells) [6] | EC50 (read off the curve) [7] | Kd [8] | koff [8] | kon [8] | Kd [9] | koff [9] | kon [9] | Kd [10] | binding ratio, mAb per LIGHT trimer [11] | EC50 [12]
6 | 2.1 nM | 1 mAb per LIGHT trimer | 0.34 nM | 16 nM | 47.1 | 2B11 (antibody, human IgG4, V domains shown, chimeric human IgG4 (S-to-P, L-to-E at 248), human CL; also called Parental 2B11) VH: EVQLVESGAELVRPGVSVKISCKGSGYTFTDYAIHWVKQSHAKSLEWIGVISTYYGDASYNQKFKGKATMTVDKSSSTAYMELARLTSEDSAIYYCARSRGEYGNYDAMDYWGQGTSVTVSS VL: DIVLTQSPASLAVSLGQRATISCRASESVDSYGNSFMHWYQQKPGQPPKLLIYRASNLESGIPARFSGSGSRTDFTLTINPVEADDVATYYCQQSNEDPYTFGGGTKLEIK |  |  |  |  |  |  |  |  |  |  | 
7 | 0.6 nM |  | 0.19 nM | 3.6 nM | 18.9 | 3D12 (antibody, human IgG4, V domains shown, chimeric: mouse variable domains on human IgG4 HC (S-to-P and L-to-E at 248) and human CL; also called Parental 3D12; 3D12 chimeric) VH: QVQLQQPGAELVRPGASVTLSCKASDYTFTDSEIHWVKQTPVHGLEWIGEIDPETGGTAYNQKFKGKATLTADKSSSTAYMELRSLTSEDSAVYYCSRETDYFFDYWGQGTTLTVSS VL: DIQMTQSPASLSASVGETVTITCGASENIYGALNWYQRKQGKSPQLLIYGATNLADGMSSRFSGSGSGRQYSLKISSLHPDDVATYYCQNVLSTPWTFGGGTKLEIKR | 0.32 nM | ~0.2 nM | 14 nM | 0.00235 s⁻¹ | 168000 M⁻¹ s⁻¹ | 10.7 nM | 0.00234 s⁻¹ | 219000 M⁻¹ s⁻¹ | 0.2 nM | 1 mAb per LIGHT trimer | 0.08 nM
